From patent US20240409635A1 (VIBRANT PHARMA, published 2024)
One block for each binder: values may come before it.

How the values were obtained:
[1] = biological target: epidermal growth factor receptor (EGFR) on human tumor cells (human, UniProt P00533 25-1210); assay: cell-based or functional assay
[2] = biological target: T1, recombinant human CD3ε/δ protein (ACRO systems, CDD-H52W1) (human, UniProt P07766 23-126; P04234 22-105); assay: BLI, antibody captured on AHC sensor
T1 construct: Bought reagent
Experimental: (§1) Antibodies were first captured onto an anti-human IgG Fc coated AHC biosensor (Anti-hIgG Fc, Sartorius, 18-5060). Antibodies were diluted to 5 μg/mL and 1.5 nm protein was coupled to the AHC sensor surface in 0.02% PBST.
(§2) After the sensor captures the antibodies, it is used to bind and dissociate with different concentrations of analytes to obtain the KD value of the interaction. The experimental parameters are as follows: Baseline1: 60 s, Loading: 240 s, Baseline2: 180 s, Association: 240 s, Dissociation: 600 s, High sensitivity kinetics: 2 Hz. Kinetic constants were derived based on the rate equation for 1:1 Langmuir binding to obtain equilibrium dissociation constants (KD). The Data Analysis HT 12 software (Sartorius, 50-5029) was used to simultaneously fit binding and dissociation curves to calculate Kₒₙ, and Koff. The affinity KD was calculated based on the below formula: KD=Koff/Kₒₙ.

[3] = biological target: T2, recombinant human EGFR protein (ACRO systems, EGR-H5222) (human, UniProt P00533 25-645); assay: BLI, antibody captured on AHC sensor
T2 construct: Bought reagent
Experimental: as §1, §2

[4] = biological target: T3, keyhole limpet haemocyanin; assay: ELISA, KLH coated, 100 nM antibody
T3 construct: Bought reagent, coated at 5 ug/mL; also called KLH
Experimental: (§3) The experimental steps are as follows [0420] […] (4) 50 μl anti-human IgG-HRP conjugate (Sigma, AP113P, 1:8000 dilution) was added to each well; the plate was incubated for 1 h at room temperature and washed 6 times with 0.05% PBST; [0424] (5) 50 μl of TMB chromogenic solution (Biopanda, TMB-S-001) was added to each well and incubated at room temperature for 10-15 minutes for color development; [0425] (6) 50 μl of 1M HCl was added to each well to stop the color development, and the absorbance at 450 nm was measured using a microplate reader (Biotek, SYNERGY LX); Data analysis: If the ratio between the absorbance of the antibody and the absorbance of the blank control PBS is ≥3, there is too much non-specific binding.

[5] = biological target: T4, Insulin; assay: ELISA, insulin coated, 100 nM antibody
T4 construct: Bought reagent, coated at 5 ug/mL
Experimental: as §3

[6] = biological target: T5, recombinant human CD3ε/δ protein (human, UniProt P07766 23-126; P04234 22-105); assay: BLI, antibody on AHC sensor
T5 construct: Bought heterodimer
Experimental: as §1
as §2, with “Kₒₙ” for “Kₒₙ,”

[7] = biological target: T6, recombinant human EGFR protein (human, UniProt P00533 25-645); assay: BLI, antibody on AHC sensor
T6 construct: Bought
Experimental: as §1
as §2, with “Kₒₙ” for “Kₒₙ,”

[8] = biological target: T7, recombinant human c-Met protein (human, UniProt P08581 25-932); assay: BLI, antibody on AHC sensor
T7 construct: Bought
Experimental: as §1
as §2, with “Kₒₙ” for “Kₒₙ,”

T5 sequence (P07766 23-126, stated change not applied, chain 1 of 2): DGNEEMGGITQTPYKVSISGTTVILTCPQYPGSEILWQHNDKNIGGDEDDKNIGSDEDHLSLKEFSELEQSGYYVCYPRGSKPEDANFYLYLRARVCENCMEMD
T5 sequence (P04234 22-105, stated change not applied, chain 2 of 2): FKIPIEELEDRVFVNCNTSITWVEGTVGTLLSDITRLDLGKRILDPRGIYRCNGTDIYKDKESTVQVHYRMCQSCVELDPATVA
T1 sequence (P07766 23-126, stated change not applied, chain 1 of 2): as the sequence (P07766 23-126, stated change not applied, chain 1 of 2) above
T1 sequence (P04234 22-105, stated change not applied, chain 2 of 2): as the sequence (P04234 22-105, stated change not applied, chain 2 of 2) above
T7 sequence (P08581 25-932 limits assumed): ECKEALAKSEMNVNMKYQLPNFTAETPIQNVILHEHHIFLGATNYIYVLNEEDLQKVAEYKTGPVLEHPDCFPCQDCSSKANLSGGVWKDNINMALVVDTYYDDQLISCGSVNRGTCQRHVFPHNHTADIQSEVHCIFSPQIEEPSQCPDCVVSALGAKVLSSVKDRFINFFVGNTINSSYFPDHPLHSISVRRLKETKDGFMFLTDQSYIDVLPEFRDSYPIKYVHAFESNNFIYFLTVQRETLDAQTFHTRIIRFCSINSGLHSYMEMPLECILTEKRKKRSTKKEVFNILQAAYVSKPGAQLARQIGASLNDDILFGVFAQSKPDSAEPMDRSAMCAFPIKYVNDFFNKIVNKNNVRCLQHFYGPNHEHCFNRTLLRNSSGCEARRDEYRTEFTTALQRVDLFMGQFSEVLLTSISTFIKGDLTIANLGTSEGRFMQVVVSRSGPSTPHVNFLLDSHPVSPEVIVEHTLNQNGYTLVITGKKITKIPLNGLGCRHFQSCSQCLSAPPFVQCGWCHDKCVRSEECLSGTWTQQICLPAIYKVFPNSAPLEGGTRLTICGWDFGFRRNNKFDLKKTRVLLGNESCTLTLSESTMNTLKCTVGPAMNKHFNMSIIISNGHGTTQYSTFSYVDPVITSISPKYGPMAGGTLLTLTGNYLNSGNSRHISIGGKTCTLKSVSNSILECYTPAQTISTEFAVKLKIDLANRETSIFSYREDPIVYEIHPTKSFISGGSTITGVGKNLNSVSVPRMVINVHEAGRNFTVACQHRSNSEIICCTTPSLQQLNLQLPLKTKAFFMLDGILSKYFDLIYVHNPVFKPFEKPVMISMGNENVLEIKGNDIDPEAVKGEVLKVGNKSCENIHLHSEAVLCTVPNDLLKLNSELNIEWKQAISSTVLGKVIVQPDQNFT

B1: EGFR-BsAb bispecific control antibody (TA1-Fab CD3 x EGFR VHH) (bispecific antibody, human IgG4 S228P, kappa, F234A L235A)
heavy: EVKLLESGGGLVQPKGSLKLSCAASGFTFNTYAMNWVRQAPGKGLEWVARIRSKYNNYATYYADSVKDRFTISRDDSQSILYLQMNNLKTEDTAMYYCVRHGNFGNSYVSWFAYWGQGTLVTVSSASTKGPSVFPLAPCSRSTSESTAALGCLVKDYFPEPVTVSWNSGALTSGVHTFPAVLQSSGLYSLSSVVTVPSSSLGTKTYTCNVDHKPSNTKVDKRVESKYGPPCPPCPAPEAAGGPSVFLFPPKPKDTLMISRTPEVTCVVVDVSQEDPEVQFNWYVDGVEVHNAKTKPREEQFNSTYRVVSVLTVLHQDWLNGKEYKCKVSNKGLPSSIEKTISKAKGQPREPQVYTLPPCQEEMTKNQVSLWCLVKGFYPSDIAVEWESNGQPENNYKTTPPVLDSDGSFFLYSRLTVDKSRWQEGNVFSCSVMHEALHNHYTQKSLSLSL
chain: QVQLQESGGGSVQAGGSLKLSCAASGRGFSRYAMGWFRQAPGQDREFVATISWTNSTDYADSVKGRFAISRDNAKNTAYLQMNSLKPEDTAVYYCAADKWASSTRSIDYDYWGQGIQVTVSSESKYGPPCPPCPAPEAAGGPSVFLFPPKPKDTLMISRTPEVTCVVVDVSQEDPEVQFNWYVDGVEVHNAKTKPREEQFNSTYRVVSVLTVLHQDWLNGKEYKCKVSNKGLPSSIEKTISKAKGQPREPQVCTLPPSQEEMTKNQVSLSCAVKGFYPSDIAVEWESNGQPENNYKTTPPVLDSDGSFFLVSRLTVDKSRWQEGNVFSCSVMHEALHNRFTQKSLSLSL
light: QAVVTQESALTTSPGETVTLTCRSSTGAVTTSNYANWVQEKPDHLFTGLIGGTNKRAPGVPARFSGSLIGDKAALTITGAQTEDEAIYFCALWYSNLWVFGGGTKVEIKRTVAAPSVFIFPPSDEQLKSGTASVVCLLNNFYPREAKVQWKVDNALQSGNSQESVTEQDSKDSTYSLSSTLTLSKADYEKHKVYACEVTHQGLSSPVTKSFNRGEC
notes: also called anti-EGFR-BsAb
killing EC50, NCI-H157 cells (EGFR-positive) [1]: 20 pM
killing EC50, NCI-H1299 cells (EGFR-positive) [1]: 31.8 pM
killing EC50, NCI-H1395 cells (EGFR-positive) [1]: 10.8 pM
Kd [2]: 9030 pM
koff [2]: 0.000748 s⁻¹
kon [2]: 82900 M⁻¹ s⁻¹
Kd [3]: 9850 pM
koff [3]: 0.00305 s⁻¹
kon [3]: 309000 M⁻¹ s⁻¹

B2: CEA-CAM6-BsAb bispecific control antibody (TA1-Fab anti-CD3 x CEA-CAM6 VHH) (bispecific antibody, human IgG4 S228P, kappa, F234A L235A)
heavy: B1 heavy
chain: QVKLEESGGGLVQAGGSLRLSCRTSGRTNSVYTMGWFRQAPGKEREFVAQIMWGAGTNTHYADSVKGRFTISRDSAESTVYLQMNSLKPEDTAVYYCAANRGIPIAGRQYDYWGQGTQVTVSSESKYGPPCPPCPAPEAAGGPSVFLFPPKPKDTLMISRTPEVTCVVVDVSQEDPEVQFNWYVDGVEVHNAKTKPREEQFNSTYRVVSVLTVLHQDWLNGKEYKCKVSNKGLPSSIEKTISKAKGQPREPQVCTLPPSQEEMTKNQVSLSCAVKGFYPSDIAVEWESNGQPENNYKTTPPVLDSDGSFFLVSRLTVDKSRWQEGNVFSCSVMHEALHNRFTQKSLSLSL
light: B1 light
notes: IgG4
absorbance ratio to PBS blank [4]: 0.45
absorbance ratio to PBS blank [5]: 0.87

Now from value to binder:

absorbance ratio to PBS blank [4]: 0.5
absorbance ratio to PBS blank [5]: 0.86
Kd [6]: 5510 pM
koff [6]: 0.00302 s⁻¹
kon [6]: 547000 M⁻¹ s⁻¹
Kd [7]: 645 pM
koff [7]: 0.000401 s⁻¹
kon [7]: 622000 M⁻¹ s⁻¹
B3: EGFR-BsAb bispecific control antibody (TA1-Fab anti-CD3 x EGFR VHH) (bispecific antibody, human IgG4 S228P, kappa, F234A L235A)
heavy: B1 heavy
chain: B1 chain
light: B1 light
notes: IgG4

Kd [8]: 523 pM
koff [8]: 0.000367 s⁻¹
kon [8]: 702000 M⁻¹ s⁻¹
B4: c-Met-BsAb bispecific control antibody (TA1F anti-CD3 Fab x c-Met VHH) (bispecific antibody, IgG4, not shown: a dimerising Fc or GST)
heavy: EVKLLESGGGLVQPKGSLKLSCAASGFTFNTYAMNWVRQAPGKGLEWVARIRSKYNNYATYYADSVKDRFTISRDDSQSILYLQMNNLKTEDTAMYYCVRHGNFGNSYVSWFAYWGQGTLVTVSSASTKGPSVFPLAPCSRSTSESTAALGCLVKDYFPEPVTVSWNSGALTSGVHTFPAVLQSSGLYSLSSVVTVPSSSLGTKTYTCNVDHKPSNTKVDKRV
chain: QVKLEESGGDLVQPGGSLRLSCVGSGSIFSYTAMGWYRQAPGKQRELVATIHSGGNINYADSVKGRFTISRDNTENTVYLQMNSLKPEDTAVYYCWSLLVGPETRYKDFNFWGRGTQVTVSS
light: B1 light
notes: the text gives VH-CH1-Hinge-Fc (IgG4) and VL-CL (kappa)

absorbance ratio to PBS blank [4]: 2.31
absorbance ratio to PBS blank [5]: 1.69
B5: HER2-BsAb bispecific control antibody (TA1-Fab anti-CD3 x HER2 VHH) (bispecific antibody, human IgG4 S228P, kappa, F234A L235A)
heavy: B1 heavy
chain: QVQLVQSGGGLVQAGGSLRLSCAASGRTFSSYAMAWFRQAPGKEREFVAAISWSGANIYVADSVKGRFTISRDNAKDTVYLQMNSLKPEDTAVYYCAVKLGFAPVEERQYDYWGQGTQVTVSSESKYGPPCPPCPAPEAAGGPSVFLFPPKPKDTLMISRTPEVTCVVVDVSQEDPEVQFNWYVDGVEVHNAKTKPREEQFNSTYRVVSVLTVLHQDWLNGKEYKCKVSNKGLPSSIEKTISKAKGQPREPQVCTLPPSQEEMTKNQVSLSCAVKGFYPSDIAVEWESNGQPENNYKTTPPVLDSDGSFFLVSRLTVDKSRWQEGNVFSCSVMHEALHNRFTQKSLSLSL
light: B1 light
notes: IgG4
